Data set [1] has as its target TDP(1–77)-C39/C50S (human) (UniProt Q13148). Nature of the data set: SEC; protein at 10 µM; Superdex-200 Increase 10/300 GL; Buffer A; room temperature.
Data set [2] shares this target. As to the kind of experiment: SEC; protein at 50 µM; Superdex-200 Increase 10/300 GL; Buffer A (25 mM Tris-HCl, pH 8.0, 150 mM NaCl); room temperature; apparent MW from standard proteins. (Size exclusion chromatography separates by hydrodynamic size, large species first.)
Data set [3] has the same target. As to the kind of experiment: SEC; protein at 500 µM; Superdex-200 Increase 10/300 GL; Buffer A; room temperature.
The target is the same in data set [4]. As to the kind of experiment: SEC; protein at 250 µM; Superdex-200 Increase 10/300 GL; Buffer A; room temperature.
Data set [5] concerns the molecule itself. Nature of the data set: SEC; protein at 50 µM; Superdex-200 Increase 10/300 GL; Buffer A (25 mM Tris-HCl, pH 8.0, 150 mM NaCl); room temperature; apparent MW from standard proteins.
Data set [6] deals with the molecule itself. As to the kind of experiment: SEC; series of different protein concentrations (Fig. S1, Fig. S2D,E); Buffer A; room temperature.
Data set [7] deals with the molecule itself. As to the kind of experiment: SEC; protein at 500 µM treated with 5 mM DTT; Superdex-200 Increase 10/300 GL; Buffer A; room temperature.
Data set [8] deals with the molecule itself. Nature of the data set: SEC; protein at 250 µM; Superdex-200 Increase 10/300 GL; Buffer A; room temperature.
Data set [9] concerns the molecule itself. As to the kind of experiment: SEC; protein at 50 µM; Superdex-200 Increase 10/300 GL; Buffer A (25 mM Tris-HCl, pH 8.0, 150 mM NaCl); room temperature; apparent MW from standard proteins. This is another data set of the same source.
Data set [10] concerns the molecule itself. Nature of the data set: SEC; protein at 10 µM; Superdex-200 Increase 10/300 GL; Buffer A; room temperature.
Data set [11] deals with the molecule itself. Nature of the data set: SEC; protein at 500 µM; Superdex-200 Increase 10/300 GL; Buffer A; room temperature.

Results on four molecules are retold here after paper PMC5522446, “The N-terminal dimerization is required for TDP-43 splicing activity” (Scientific Reports, 2017).

As for “TDP(1–77)-C39/C50S (from UniProt Q13148 1-77) (domain or fragment)”, the stoichiometry N – broadly, a count of units in the complex or per binding partner – in data set [1] came to 1.7; in data set [2] it was 1.7; in [3], 1.8; in data set [4], 1.8.

B1: TDP(1–89) (domain or fragment, human, UniProt Q13148 1-89, looked up)
chain: MSEYIRVTEDENDEPIEIPSEDDGTVLLSTVTAQFPGACGLRYRNPVSQCMRGVRLVEGILHAPDAGWGNLVYVVNYPKDNKRKMDETD
notes: TDP-43, human, residues 1-89; pET22b, Nde I/Xho I; C-terminal His6 surmised; Printed theoretical MW 11.1 kDa; also called TDP-43 NTD; source: E. coli BL21 (DE3), purified (Ni2+-NTA, SEC)
Consider B1, for which the “stoichiometry N” value in data set [5] is 2.4.

B2: TDP(1–89) Cys mutant (Cys39 and Cys50 to Ser) (domain or fragment, human, UniProt Q13148 1-89, looked up)
chain: MSEYIRVTEDENDEPIEIPSEDDGTVLLSTVTAQFPGASGLRYRNPVSQSMRGVRLVEGILHAPDAGWGNLVYVVNYPKDNKRKMDETD
notes: TDP-43, human, residues 1-89 with Cys39 and Cys50 mutated to Ser; pET22b, Nde I/Xho I; C-terminal His6 surmised; also called TDP(1–89) mutant; source: E. coli BL21 (DE3), purified (Ni2+-NTA, SEC)
As to B2, in [6], the binding result was “binds”.

B3: TDP(1–77) (domain or fragment, human, UniProt Q13148 1-77, looked up)
chain: MSEYIRVTEDENDEPIEIPSEDDGTVLLSTVTAQFPGACGLRYRNPVSQCMRGVRLVEGILHAPDAGWGNLVYVVNY
notes: TDP-43, human, residues 1-77; pET22b, Nde I/Xho I; C-terminal His6 surmised; Printed theoretical MW 9.6 kDa; PDB 2N4P (cited) is His6-TDP(1–77); also called N-terminal 77-residue construct; wild-type TDP(1–77); source: E. coli BL21 (DE3), purified (Ni2+-NTA, SEC)
As for B3, the “stoichiometry N” value in [7] stood at 2.4; in data set [8], 2.1; in data set [9], 1.8; in data set [10], 1.7; in [11], 2.3.
